Measurements published in article PMC7144908.

Target: SV40 large T antigen (Tag) (Simian virus 40) (UniProt P03070)
Assay: DSF

Chain of SV40 large T antigen (Tag) (Simian virus 40) (P03070 whole entry): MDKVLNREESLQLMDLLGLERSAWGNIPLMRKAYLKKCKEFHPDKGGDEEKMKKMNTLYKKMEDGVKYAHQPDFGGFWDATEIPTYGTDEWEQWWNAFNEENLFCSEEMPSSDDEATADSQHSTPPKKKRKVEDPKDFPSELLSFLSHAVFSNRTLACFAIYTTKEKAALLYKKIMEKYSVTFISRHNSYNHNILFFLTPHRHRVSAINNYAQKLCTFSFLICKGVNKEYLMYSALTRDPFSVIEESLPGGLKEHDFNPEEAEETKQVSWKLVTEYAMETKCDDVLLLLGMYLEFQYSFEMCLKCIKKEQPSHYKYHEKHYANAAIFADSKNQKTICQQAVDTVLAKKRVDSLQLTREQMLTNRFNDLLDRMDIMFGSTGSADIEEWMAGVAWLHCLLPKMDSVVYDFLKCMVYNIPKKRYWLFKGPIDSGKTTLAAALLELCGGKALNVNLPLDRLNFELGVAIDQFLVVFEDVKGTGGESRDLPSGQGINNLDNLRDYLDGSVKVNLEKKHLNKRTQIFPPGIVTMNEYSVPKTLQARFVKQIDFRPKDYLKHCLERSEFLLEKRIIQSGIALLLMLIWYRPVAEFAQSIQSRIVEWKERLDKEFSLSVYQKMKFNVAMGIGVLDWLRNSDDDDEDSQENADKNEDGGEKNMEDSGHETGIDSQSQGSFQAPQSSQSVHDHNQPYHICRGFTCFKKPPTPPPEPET

Poly(dT)
Kd: 40 nM
